Legend:
[1] = molecular target: human PD-L1 on CHO-K1 cells (human) (UniProt Q9NZQ7); test: flow cytometry on CHO-K1 cells overexpressing human PD-L1, PE anti-human IgG detection, median fluorescence intensity
human TGF-β3 (human) = human TGF-β3 (human) (UniProt P10600); test: ELISA, TGF-β3 coated at 0.5 µg/ml, HRP anti-human IgG detection, OD450
[2] = molecular target: human PD-L1 on CHO-K1 cells (human) (UniProt Q9NZQ7); test: dual-target flow cytometry: sample pre-mixed with 3 µg/ml human TGF-β1, then CHO-K1 cells overexpressing human PD-L1, detection with PE anti-human TGF-β1 antibody (signal needs PD-L1 and TGF-β1 bound at once)
human TGF-β1 (human) = human TGF-β1 (human) (UniProt P01137); test: ELISA, TGF-β1 coated at 0.5 µg/ml, HRP anti-human IgG detection, OD450
Sequence of human TGF-β1 (human) (P01137 279-390 limits assumed): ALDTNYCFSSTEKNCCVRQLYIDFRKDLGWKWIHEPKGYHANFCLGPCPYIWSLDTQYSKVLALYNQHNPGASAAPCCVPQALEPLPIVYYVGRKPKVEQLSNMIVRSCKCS

Sequence of human PD-L1 on CHO-K1 cells (human) (Q9NZQ7 19-290): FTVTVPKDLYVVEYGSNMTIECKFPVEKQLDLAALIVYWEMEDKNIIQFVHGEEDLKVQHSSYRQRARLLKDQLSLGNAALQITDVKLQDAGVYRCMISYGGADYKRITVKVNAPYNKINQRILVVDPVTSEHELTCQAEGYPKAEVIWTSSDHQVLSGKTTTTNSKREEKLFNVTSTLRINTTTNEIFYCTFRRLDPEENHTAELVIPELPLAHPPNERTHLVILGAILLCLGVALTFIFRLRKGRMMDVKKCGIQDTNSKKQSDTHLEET
Sequence of human TGF-β3 (human) (P10600 301-412 limits assumed): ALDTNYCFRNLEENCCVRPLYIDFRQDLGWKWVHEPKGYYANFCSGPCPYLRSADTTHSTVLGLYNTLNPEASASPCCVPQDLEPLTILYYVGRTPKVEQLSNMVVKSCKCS

- EC50 [1]: 1.43 nM
- EC50 (human TGF-β3 (human)): 1.12 nM
- EC50 [2]: 0.788 nM
- EC50 (human TGF-β1 (human)): 0.598 nM
Substance: 900544 (control drug M7824 from Merck, expressed in-house) (bispecific antibody)

Reference: US20240026004A1
